Assay results: publication PMC6594998, “Inhibition of CRISPR-Cas9 ribonucleoprotein complex assembly by anti-CRISPR AcrIIC2”

B1: full length sgRNA (filter binding) (structured_RNA)
RNA: GGUCUGUAAGCGGAUGCCAUAUGGUUGUAGCUCCCUUUCUCGAAAGAGAACCGUUGCUACAAUAAGGCCGUCUGAAAAGAUGUGCCGCAACGCUCUGCCCCUUAAAGCUUCUGCUUUAACGGGCUU

Columns and labels:
Nme1Cas9 [1] = target: T1, Nme1Cas9 (Neisseria meningitidis, UniProt C9X1G5 1-1082); test: filter binding; no AcrIIC2Nme; 5 mM MgCl2; Filter binding: 20 mM Tris pH 7.5, 100 mM KCl, 5 mM MgCl2, 1 mM DTT, 5% glycerol, 0.01% Igepal, 10 ug/mL yeast tRNA, 10 ug/mL BSA, 37 C, 30 min; ITC: 300 mM NaCl, 20 mM Tris pH 7.5, 20 C; gel filtration: 300 mM NaCl, 20 mM Tris pH 7.5; pull-down: 50 mM Tris pH 7.5, 200 mM NaCl, 5% glycerol, 20 mM imidazole; conditions: protein: recombinant; label: radiolabeled; sgRNA with repeat:anti-repeat hairpin and stem loops 1 and 2
T1 sequence: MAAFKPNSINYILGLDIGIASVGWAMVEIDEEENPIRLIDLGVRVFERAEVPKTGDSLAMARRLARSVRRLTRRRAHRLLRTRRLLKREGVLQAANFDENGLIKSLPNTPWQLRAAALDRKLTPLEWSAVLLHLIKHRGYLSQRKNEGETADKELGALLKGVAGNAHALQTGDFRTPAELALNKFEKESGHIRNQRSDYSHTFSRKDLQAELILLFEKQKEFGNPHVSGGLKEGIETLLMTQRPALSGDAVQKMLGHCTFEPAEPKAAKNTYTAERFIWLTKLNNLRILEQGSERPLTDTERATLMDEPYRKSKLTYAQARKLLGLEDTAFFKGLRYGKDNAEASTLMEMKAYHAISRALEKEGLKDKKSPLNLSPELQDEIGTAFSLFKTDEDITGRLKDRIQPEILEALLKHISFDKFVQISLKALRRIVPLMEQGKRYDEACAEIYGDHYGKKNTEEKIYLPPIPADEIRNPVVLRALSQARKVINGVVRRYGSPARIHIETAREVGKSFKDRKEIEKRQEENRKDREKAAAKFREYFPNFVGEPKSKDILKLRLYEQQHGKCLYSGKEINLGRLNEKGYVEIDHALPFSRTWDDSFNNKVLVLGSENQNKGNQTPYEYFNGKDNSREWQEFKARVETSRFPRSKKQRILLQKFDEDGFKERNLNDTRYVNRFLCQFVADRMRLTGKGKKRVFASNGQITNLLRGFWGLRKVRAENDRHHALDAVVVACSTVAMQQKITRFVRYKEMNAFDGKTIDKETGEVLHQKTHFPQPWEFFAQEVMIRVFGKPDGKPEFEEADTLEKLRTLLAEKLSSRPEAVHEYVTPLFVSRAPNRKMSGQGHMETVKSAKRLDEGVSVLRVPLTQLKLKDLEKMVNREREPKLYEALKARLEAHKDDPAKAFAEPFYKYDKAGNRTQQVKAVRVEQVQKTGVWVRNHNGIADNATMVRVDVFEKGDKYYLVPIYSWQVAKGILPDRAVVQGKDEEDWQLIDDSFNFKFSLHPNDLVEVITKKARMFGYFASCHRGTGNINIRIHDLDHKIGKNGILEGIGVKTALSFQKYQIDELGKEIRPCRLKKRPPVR

Nme1Cas9 [2] = target: T1, Nme1Cas9; test: filter binding; no AcrIIC2Nme; Filter binding: 20 mM Tris pH 7.5, 100 mM KCl, 5 mM MgCl2, 1 mM DTT, 5% glycerol, 0.01% Igepal, 10 ug/mL yeast tRNA, 10 ug/mL BSA, 37 C, 30 min; ITC: 300 mM NaCl, 20 mM Tris pH 7.5, 20 C; gel filtration: 300 mM NaCl, 20 mM Tris pH 7.5; pull-down: 50 mM Tris pH 7.5, 200 mM NaCl, 5% glycerol, 20 mM imidazole; conditions: protein: recombinant; label: radiolabeled; hairpin

Row | Binder | Kd (Nme1Cas9 [1]) [nM] | binding result (Nme1Cas9 [2])
1 | B1 | 0.24 ± 0.14 | –
2 | GGUUGUAGCUCCCUUUCUCGAAAGAGAACCGUUGCUACAAUAA (structured_RNA) [repeat:anti-repeat (cr:tracr)] | – | binds
